Laboratory results reported in publication PMC9168836, “Clamping of DNA shuts the condensin neck gate” (Proceedings of the National Academy of Sciences of the …, 2021).

How the values were obtained:
[1] = biological target: Ycg1 (HAWK);Brn1 (kleisin) (Saccharomyces cerevisiae;Saccharomyces …, UniProt Q06680;P38170 1-1035;1-754, |); assay: cryo-EM structure; Ycg1-Brn1 part of the condensin pentamer; ADP.BeF3, Mg2+ in sample; 3.2 A; 30 mM Tris/HCl pH 7.5, 60 mM NaCl, 1 mM TCEP, 2 mM MgCl2, 5 mM ADP, 1 mM BeSO4, 10 mM NaF; 30 min at room temperature; 1-2 uM 80-bp DNA or 100 nM circular DNA; settings: protein: recombinant;recombinant; tags: see P1;see P1; copies: 1;1; blunt
[2] = biological target: Smc2;Smc4;Brn1 (kleisin);Ycs4 (HAWK) (Saccharomyces cerevisiae;Saccharomyces …, UniProt P38989;Q12267;P38170;Q06156 1-1170;1-1418;1-754;1-1176, |||); assay: cryo-EM structure; condensin tetramer; ADP.BeF3, Mg2+; clamped head module Form I, 2.95 A; 30 mM Tris/HCl pH 7.5, 60 mM NaCl, 1 mM TCEP, 2 mM MgCl2, 5 mM ADP, 1 mM BeSO4, 10 mM NaF; 30 min at room temperature; 1-2 uM 80-bp DNA or 100 nM circular DNA; settings: protein: recombinant;recombinant;recombinant;recombinant; copies: 1;1;1;1; blunt
Chain of Smc2;Smc4;Brn1 (kleisin);Ycs4 (HAWK) (P38989 whole entry, chain 1 of 4): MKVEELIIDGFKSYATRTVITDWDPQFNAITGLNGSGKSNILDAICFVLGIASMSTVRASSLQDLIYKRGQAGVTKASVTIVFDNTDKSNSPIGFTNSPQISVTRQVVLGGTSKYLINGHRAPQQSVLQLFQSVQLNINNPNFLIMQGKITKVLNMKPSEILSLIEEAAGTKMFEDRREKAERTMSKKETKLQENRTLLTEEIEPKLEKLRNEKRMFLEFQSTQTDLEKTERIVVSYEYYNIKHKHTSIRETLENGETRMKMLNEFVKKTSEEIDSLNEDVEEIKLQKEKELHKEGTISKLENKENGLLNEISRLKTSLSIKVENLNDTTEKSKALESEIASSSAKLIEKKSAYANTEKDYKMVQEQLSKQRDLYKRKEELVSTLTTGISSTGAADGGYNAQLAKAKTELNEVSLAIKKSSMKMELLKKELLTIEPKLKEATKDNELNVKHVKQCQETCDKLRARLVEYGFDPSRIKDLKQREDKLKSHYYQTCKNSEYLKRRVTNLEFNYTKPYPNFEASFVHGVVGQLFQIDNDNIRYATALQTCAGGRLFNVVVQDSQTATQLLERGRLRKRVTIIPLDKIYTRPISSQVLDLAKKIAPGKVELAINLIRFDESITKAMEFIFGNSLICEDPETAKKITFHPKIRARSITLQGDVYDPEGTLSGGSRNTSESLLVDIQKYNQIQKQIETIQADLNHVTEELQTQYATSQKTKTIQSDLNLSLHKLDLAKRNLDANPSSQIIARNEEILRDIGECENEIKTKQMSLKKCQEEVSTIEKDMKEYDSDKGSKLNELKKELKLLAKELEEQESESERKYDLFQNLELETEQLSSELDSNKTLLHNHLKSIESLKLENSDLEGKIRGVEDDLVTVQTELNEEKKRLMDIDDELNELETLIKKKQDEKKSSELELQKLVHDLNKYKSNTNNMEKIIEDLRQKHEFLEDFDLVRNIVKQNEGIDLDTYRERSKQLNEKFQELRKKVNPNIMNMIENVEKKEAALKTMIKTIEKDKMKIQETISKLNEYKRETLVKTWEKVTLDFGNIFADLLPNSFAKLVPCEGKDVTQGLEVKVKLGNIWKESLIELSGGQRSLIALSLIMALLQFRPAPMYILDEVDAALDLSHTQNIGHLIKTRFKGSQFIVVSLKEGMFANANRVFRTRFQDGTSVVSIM
Chain of Smc2;Smc4;Brn1 (kleisin);Ycs4 (HAWK) (Q12267 whole entry, chain 2 of 4): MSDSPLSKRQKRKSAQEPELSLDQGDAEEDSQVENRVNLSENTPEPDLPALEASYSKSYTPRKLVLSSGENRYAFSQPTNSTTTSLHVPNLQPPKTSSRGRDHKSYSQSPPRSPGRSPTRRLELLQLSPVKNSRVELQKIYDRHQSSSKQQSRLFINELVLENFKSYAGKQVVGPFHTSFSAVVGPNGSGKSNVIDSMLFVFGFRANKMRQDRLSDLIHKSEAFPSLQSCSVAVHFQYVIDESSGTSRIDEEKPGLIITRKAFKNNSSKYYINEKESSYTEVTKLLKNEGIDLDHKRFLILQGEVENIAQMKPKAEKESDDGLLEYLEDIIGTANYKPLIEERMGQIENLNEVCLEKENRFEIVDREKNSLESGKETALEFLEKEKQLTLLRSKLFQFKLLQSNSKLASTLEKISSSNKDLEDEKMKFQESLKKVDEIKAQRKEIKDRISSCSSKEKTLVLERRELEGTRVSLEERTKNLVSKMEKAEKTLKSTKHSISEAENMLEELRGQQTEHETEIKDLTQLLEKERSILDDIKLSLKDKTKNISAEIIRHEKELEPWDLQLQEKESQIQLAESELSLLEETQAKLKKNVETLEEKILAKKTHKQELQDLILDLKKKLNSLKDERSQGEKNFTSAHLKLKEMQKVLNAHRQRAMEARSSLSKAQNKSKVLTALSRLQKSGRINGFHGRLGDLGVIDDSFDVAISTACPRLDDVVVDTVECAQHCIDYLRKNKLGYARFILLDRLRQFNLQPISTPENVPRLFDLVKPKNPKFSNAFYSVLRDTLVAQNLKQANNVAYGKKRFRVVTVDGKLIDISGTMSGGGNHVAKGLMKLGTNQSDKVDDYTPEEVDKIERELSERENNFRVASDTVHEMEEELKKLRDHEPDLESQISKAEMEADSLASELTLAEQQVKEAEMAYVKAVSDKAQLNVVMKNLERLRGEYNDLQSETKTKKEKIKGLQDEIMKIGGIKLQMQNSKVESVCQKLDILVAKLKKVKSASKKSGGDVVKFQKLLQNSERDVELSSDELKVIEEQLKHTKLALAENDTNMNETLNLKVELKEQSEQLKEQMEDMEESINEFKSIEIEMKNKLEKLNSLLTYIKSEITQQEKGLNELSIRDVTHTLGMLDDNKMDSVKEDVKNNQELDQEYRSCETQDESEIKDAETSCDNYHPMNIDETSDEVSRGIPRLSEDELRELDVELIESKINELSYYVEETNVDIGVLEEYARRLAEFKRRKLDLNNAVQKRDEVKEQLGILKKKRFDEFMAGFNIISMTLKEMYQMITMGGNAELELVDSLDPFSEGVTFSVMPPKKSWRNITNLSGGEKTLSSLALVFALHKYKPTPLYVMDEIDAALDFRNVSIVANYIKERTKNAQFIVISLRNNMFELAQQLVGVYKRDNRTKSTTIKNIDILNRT
Chain of Smc2;Smc4;Brn1 (kleisin);Ycs4 (HAWK) (P38170 whole entry, chain 3 of 4): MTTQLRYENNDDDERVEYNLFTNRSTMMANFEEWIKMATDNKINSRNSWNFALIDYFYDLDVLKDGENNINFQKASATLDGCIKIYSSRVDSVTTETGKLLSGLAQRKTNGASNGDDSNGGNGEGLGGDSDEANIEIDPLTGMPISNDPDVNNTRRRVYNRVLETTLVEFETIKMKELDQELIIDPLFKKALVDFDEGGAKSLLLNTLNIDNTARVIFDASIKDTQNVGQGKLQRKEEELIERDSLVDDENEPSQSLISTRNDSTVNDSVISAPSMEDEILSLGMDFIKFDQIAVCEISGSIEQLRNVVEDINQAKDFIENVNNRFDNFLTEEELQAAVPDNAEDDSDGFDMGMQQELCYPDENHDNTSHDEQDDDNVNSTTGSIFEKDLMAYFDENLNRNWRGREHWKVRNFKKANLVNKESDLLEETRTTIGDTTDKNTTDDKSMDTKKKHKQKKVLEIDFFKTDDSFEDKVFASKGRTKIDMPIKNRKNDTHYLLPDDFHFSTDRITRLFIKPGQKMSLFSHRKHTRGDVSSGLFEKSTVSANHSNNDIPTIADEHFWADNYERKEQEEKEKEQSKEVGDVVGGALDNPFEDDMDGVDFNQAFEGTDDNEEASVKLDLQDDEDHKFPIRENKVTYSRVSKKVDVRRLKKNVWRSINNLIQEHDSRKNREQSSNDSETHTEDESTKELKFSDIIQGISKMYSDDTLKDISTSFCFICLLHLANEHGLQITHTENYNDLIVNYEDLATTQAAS
Chain of Smc2;Smc4;Brn1 (kleisin);Ycs4 (HAWK) (Q06156 whole entry, chain 4 of 4): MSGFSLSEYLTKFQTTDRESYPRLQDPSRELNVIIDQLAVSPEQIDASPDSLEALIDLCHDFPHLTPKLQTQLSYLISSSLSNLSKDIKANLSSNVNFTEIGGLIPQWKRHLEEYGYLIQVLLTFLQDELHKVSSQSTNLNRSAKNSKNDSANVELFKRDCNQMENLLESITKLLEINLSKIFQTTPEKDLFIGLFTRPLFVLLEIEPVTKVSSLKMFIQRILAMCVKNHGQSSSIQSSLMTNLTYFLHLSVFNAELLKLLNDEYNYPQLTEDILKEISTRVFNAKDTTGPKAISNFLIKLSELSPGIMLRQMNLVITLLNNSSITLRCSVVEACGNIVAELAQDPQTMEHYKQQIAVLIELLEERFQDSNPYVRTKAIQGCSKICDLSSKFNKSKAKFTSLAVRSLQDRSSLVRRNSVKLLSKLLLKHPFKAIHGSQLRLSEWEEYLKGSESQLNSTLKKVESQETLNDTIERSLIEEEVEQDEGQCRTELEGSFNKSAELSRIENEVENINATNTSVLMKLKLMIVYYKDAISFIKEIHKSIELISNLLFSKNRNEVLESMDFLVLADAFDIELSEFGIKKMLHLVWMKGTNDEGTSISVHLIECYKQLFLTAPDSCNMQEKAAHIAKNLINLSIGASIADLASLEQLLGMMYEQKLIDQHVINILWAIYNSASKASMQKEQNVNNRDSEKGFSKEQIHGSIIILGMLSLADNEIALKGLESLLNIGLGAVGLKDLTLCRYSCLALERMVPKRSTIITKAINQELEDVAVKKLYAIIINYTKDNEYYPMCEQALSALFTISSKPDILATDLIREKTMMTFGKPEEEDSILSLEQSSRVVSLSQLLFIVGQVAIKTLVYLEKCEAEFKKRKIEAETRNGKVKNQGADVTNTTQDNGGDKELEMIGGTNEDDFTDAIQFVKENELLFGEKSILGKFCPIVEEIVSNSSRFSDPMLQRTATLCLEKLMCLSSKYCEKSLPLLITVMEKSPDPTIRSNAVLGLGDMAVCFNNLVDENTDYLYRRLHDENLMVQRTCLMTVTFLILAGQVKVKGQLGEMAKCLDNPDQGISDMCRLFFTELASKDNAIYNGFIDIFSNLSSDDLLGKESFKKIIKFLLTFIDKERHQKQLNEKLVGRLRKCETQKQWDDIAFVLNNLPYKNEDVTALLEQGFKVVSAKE

[3] = biological target: Smc2;Smc4;Brn1 (kleisin);Ycs4 (HAWK);Ycg1 (HAWK) (Saccharomyces cerevisiae;Saccharomyces …, UniProt P38989;Q12267;P38170;Q06156;Q06680 1-1170;1-1418;1-754;1-1176;1-1035, ||||); assay: cryo-EM structure; condensin pentamer; ADP.BeF3, Mg2+; clamped head module map EMD-13785, Ycg1 not on head module; 30 mM Tris/HCl pH 7.5, 60 mM NaCl, 1 mM TCEP, 2 mM MgCl2, 5 mM ADP, 1 mM BeSO4, 10 mM NaF; 30 min at room temperature; 1-2 uM 80-bp DNA or 100 nM circular DNA; settings: protein: recombinant;recombinant;recombinant;recombinant;recombinant; copies: 1;1;1;1;1; blunt

Measured: binding result

B1: 80-bp dsDNA (dsDNA)
DNA 1: GAATTCGGTGCGCATAATGTATAATAAGATAAATAAGCTTAAGTTCTTCCGATGCATAATAACATAATACGTGACTTTAC
DNA 2: GTAAAGTCACGTATTATGTTATTATGCATCGGAAGAACTTAAGCTTATTTATCTTATTATACATTATGCGCACCGAATTC
binds: all assays above
